Reference: US20240109968A1 (NEW YORK UNIVERSITY, published 2024)

Target: T1, human galectin-9 CRD2 domain (human, UniProt O00182 227-355, limits assumed)
T1 construct: domain: CRD2; also called human CRD2 domain of galectin-9
Assay: ELISA; antibody titrated over immobilized Galectin-9 CRD2, saturation curve

T1 sequence (O00182 227-355 limits assumed): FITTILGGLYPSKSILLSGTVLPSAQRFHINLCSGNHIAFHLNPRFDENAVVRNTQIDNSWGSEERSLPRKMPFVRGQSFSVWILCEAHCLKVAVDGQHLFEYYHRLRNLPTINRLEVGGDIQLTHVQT

Kd: < 1 nM
B1: anti-Galectin-9 antibody G9.2-17 (IgG4) (antibody, V domains shown)
VH: EVQLVESGGGLVQPGGSLRLSCAASGFTVSSSSIHWVRQAPGKGLEWVAYISSSSGYTYYADSVKGRFTISADTSKNTAYLQMNSLRAEDTAVYYCARYWSYPSWWPYRGMDYWGQGTLVTVSS
VL: DIQMTQSPSSLSASVGDRVTITCRASQSVSSAVAWYQQKPGKAPKLLIYSASSLYSGVPSRFSGSRSGTDFTLTISSLQPEDFATYYCQQSSTDPITFGQGTKVEIKR
notes: Human IgG4 with S228P (EU); also called G9.2-17(Ig4); G9.2-17 hIgG4 Fab Arm Exchange mut
